The results in this text go back to publication PMC3573756.

The target of test [1] is cardiac ryanodine receptor (RyR2) (rat (endogenous in rat ventricular myocytes)) (UniProt B0LPN4). Description: FRET or BRET.
The target is the same in test [2]. Put plainly: FRET or BRET. This is another data set of the same source.
The target is the same in test [3]. Description: other fluorescence titration.
For test [4] the target is unchanged. Description: confocal fluorescence wash-in and wash-out kinetics.

Sequence of UniProt B0LPN4 (B0LPN4 whole entry): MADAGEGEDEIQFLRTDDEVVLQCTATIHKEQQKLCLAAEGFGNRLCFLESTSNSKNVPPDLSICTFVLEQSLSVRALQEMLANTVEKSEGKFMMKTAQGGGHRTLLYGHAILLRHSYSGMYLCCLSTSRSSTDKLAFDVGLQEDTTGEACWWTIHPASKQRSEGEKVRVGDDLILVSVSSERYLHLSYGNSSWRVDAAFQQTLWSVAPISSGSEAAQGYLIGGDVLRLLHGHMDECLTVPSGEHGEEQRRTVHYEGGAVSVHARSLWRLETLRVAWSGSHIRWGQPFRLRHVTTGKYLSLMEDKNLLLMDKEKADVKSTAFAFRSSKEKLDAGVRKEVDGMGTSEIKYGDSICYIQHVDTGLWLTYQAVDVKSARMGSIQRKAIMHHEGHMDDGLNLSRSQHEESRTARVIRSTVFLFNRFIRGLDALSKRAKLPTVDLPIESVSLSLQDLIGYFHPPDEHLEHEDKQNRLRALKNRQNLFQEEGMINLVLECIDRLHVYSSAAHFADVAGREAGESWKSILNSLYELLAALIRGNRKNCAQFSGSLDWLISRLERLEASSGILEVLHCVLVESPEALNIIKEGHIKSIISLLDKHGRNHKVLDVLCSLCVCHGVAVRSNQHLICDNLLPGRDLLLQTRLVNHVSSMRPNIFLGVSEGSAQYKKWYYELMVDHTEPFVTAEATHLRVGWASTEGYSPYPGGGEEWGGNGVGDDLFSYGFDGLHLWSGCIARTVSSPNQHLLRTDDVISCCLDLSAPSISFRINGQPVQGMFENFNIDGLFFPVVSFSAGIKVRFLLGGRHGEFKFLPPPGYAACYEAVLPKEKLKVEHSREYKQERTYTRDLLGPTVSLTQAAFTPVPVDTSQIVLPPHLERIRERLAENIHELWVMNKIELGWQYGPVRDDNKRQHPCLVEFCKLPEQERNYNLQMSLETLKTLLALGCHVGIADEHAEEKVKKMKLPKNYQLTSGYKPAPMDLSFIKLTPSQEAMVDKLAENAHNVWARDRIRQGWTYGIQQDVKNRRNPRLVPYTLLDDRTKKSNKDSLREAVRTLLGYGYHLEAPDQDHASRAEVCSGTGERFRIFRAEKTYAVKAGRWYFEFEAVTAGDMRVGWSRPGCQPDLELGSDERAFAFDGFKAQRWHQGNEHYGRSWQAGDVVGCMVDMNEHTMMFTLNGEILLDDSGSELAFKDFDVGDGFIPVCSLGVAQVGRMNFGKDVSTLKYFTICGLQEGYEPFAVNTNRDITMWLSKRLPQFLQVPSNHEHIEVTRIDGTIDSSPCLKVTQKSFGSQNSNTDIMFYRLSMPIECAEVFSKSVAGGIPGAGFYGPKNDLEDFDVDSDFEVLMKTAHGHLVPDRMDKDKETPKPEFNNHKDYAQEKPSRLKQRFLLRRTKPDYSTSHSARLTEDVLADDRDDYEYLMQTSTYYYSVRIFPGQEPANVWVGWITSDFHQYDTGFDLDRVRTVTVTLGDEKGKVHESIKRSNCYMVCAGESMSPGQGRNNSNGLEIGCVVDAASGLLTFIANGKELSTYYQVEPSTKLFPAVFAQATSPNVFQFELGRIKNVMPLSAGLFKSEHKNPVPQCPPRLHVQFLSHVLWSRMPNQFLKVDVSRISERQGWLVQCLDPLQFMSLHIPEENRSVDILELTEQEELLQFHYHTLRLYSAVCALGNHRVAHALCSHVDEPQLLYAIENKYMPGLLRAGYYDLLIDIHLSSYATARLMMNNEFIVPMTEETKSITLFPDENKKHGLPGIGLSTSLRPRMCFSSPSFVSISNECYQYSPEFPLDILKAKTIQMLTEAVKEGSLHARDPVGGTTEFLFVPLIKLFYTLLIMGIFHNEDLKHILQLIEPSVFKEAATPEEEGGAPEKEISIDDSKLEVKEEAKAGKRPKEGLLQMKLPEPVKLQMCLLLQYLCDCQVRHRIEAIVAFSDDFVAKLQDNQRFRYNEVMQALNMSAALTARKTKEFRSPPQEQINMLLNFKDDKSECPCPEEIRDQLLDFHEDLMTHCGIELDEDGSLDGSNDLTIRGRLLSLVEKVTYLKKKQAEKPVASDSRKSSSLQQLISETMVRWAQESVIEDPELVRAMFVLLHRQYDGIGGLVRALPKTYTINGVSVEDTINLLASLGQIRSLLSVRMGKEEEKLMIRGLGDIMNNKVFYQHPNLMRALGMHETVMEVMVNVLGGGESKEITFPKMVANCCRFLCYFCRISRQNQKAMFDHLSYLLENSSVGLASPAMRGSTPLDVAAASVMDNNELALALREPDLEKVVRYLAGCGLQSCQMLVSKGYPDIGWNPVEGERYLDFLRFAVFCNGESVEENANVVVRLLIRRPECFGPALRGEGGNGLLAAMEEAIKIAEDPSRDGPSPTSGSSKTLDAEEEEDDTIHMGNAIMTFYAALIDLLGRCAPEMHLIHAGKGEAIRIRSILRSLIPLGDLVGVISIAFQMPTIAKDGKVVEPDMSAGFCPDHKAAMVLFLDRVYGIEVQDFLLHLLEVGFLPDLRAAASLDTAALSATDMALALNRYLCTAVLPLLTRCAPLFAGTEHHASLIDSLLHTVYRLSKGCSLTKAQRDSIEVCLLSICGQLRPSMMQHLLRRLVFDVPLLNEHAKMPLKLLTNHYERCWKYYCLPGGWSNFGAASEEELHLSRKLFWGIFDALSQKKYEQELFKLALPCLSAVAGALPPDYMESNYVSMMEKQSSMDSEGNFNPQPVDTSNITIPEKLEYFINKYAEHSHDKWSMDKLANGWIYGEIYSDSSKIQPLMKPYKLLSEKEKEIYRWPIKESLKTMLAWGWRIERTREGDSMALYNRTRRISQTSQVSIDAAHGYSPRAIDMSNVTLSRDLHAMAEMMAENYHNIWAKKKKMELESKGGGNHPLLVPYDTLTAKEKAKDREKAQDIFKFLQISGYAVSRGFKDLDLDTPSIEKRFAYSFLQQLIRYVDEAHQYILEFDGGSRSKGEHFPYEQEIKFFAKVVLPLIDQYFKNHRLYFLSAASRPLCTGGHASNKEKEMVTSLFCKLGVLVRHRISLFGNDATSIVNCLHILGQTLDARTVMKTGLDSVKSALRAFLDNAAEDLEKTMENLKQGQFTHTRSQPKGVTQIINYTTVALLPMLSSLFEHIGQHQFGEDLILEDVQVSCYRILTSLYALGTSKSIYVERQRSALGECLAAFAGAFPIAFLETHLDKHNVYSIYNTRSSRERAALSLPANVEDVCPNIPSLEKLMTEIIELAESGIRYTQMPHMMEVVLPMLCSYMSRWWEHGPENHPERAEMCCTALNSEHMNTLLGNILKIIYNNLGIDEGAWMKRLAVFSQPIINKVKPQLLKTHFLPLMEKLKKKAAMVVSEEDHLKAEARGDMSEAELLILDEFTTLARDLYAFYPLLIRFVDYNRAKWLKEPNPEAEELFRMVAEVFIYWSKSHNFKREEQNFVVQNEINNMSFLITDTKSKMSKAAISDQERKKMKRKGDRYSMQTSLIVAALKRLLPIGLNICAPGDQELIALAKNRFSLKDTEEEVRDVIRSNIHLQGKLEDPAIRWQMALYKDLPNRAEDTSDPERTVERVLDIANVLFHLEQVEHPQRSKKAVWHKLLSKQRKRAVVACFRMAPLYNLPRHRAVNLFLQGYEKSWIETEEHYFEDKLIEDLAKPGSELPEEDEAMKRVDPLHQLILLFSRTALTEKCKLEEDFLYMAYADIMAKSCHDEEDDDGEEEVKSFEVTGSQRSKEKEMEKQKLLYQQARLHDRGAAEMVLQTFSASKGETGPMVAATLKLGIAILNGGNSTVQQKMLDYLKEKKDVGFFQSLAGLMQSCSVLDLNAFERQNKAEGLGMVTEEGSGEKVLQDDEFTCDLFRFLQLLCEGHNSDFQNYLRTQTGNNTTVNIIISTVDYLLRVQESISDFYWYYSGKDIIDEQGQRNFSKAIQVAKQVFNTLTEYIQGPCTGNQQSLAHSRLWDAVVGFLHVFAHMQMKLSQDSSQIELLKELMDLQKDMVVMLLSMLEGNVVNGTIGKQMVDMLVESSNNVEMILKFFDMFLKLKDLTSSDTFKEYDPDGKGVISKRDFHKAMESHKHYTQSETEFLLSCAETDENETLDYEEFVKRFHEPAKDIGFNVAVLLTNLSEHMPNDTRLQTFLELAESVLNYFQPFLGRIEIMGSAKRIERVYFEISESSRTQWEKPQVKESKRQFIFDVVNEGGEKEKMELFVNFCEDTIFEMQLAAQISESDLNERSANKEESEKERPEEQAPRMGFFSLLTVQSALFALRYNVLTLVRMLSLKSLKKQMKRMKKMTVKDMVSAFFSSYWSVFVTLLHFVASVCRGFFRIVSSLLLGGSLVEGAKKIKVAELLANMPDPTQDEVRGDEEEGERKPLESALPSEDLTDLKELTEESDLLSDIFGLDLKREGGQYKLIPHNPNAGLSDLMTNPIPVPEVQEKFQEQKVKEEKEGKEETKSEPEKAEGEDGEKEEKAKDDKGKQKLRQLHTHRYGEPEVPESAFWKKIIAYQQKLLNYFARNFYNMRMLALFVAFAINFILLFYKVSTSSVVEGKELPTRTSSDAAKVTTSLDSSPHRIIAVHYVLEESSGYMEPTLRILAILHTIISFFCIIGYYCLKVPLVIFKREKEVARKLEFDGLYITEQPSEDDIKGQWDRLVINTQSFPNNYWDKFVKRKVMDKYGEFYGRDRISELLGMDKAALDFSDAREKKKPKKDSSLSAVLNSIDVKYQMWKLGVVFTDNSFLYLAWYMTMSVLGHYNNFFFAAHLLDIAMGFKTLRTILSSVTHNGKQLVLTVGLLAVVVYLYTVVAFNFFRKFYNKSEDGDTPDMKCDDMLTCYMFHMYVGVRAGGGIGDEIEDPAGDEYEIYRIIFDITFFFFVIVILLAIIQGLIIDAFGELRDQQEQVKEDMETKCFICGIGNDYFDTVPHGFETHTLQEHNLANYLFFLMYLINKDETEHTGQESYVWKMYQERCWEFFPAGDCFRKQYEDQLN

For “DPc10 labeled with HiLyte Fluor 647 on the N-terminus (HF647-DPc10) (peptide)”, the Kd in test [1] is 610 nM; in test [2] it was 450 nM.

In test [3], “DPc10 labeled with 5-carboxyfluorescein at its N-terminus (F-DPc10) (peptide)” registered a Kd of 480 nM and a stoichiometry N (DPc10 per RyR2 monomer) of 1. Also, in test [4], the fold faster association after pre-saturation with NF-DPc10 against control was determined as 2 fold and the percent faster τ (wash-in) with ryanodine plus caffeine against control was found to be 21%.
